Assays:
[1] = target: T1, cynomolgus monkey KLB on CHOK1-cynoKLB cells (cynomolgus monkey, UniProt A0A2K5WB58 1-1044); experiment: flow cytometry on CHOK1-cynoKLB cells
T1 construct: whole, on cells; also called monkey KLB antigen
T1 sequence: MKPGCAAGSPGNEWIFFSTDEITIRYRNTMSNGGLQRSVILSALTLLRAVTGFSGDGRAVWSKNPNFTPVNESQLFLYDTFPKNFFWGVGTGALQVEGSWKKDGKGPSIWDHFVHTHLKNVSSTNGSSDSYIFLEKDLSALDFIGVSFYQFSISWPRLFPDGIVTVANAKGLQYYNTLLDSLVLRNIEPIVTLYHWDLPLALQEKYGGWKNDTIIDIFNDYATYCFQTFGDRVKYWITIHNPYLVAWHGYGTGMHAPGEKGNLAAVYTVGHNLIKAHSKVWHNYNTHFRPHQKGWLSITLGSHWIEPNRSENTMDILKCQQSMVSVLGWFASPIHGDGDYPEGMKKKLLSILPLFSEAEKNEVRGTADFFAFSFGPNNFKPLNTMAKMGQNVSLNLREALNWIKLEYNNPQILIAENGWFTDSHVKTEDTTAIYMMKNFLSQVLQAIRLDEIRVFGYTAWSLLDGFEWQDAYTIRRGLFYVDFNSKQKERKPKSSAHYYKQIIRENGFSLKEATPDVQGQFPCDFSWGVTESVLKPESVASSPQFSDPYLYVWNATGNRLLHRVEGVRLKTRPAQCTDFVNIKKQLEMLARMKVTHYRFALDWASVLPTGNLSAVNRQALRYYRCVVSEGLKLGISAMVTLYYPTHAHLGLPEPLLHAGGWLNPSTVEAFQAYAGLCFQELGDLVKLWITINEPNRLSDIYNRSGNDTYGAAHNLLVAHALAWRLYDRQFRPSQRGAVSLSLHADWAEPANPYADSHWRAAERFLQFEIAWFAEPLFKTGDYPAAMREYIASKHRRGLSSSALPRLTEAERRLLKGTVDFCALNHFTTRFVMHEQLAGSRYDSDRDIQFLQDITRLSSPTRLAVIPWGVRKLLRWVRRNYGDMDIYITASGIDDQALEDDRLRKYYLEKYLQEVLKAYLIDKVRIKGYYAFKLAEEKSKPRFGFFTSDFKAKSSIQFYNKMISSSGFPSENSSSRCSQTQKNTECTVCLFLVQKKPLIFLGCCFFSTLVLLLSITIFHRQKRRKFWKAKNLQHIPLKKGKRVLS
Procedure: The binding ability of the antibodies for CHOK1 cell strains CHOK1-hKLB and CHOK1-cynoKLB overexpressing human KLB and monkey KLB (see Example 1 for specific preparation procedure), respectively, was detected by flow cytometry. The specific procedure was as follows: the above cells were cultured in 10% FBS-containing IMDM medium and incubated in an incubator at 37° C. and 5% CO₂ for 2 days. The cells were then added to a cell plate at 1×10⁵ cells per well, centrifuged at 300 g for 5 min, and then washed once with 1% BSA. The antibody diluted in gradient was added to the cell plate at 100 μL per well, and the mixture was incubated at 4° C. for 1 h and washed once with 1% BSA. The diluted (1:400) APC-goat anti-human IgG Fc fluorescent secondary antibody was added at 100 μL per well, and the resulting mixture was incubated at 4° C. for 1 h. The plate was washed three times with 1% BSA, PBS was added at 100 μL per well, and the plate was read.

[2] = target: human KLB & human FGFR4 on L6 cells (human, UniProt Q86Z14 1-1044; P22455 22-802); experiment: cell-based or functional assay
Chain of human KLB & human FGFR4 on L6 cells (Q86Z14 whole entry, chain 1 of 2): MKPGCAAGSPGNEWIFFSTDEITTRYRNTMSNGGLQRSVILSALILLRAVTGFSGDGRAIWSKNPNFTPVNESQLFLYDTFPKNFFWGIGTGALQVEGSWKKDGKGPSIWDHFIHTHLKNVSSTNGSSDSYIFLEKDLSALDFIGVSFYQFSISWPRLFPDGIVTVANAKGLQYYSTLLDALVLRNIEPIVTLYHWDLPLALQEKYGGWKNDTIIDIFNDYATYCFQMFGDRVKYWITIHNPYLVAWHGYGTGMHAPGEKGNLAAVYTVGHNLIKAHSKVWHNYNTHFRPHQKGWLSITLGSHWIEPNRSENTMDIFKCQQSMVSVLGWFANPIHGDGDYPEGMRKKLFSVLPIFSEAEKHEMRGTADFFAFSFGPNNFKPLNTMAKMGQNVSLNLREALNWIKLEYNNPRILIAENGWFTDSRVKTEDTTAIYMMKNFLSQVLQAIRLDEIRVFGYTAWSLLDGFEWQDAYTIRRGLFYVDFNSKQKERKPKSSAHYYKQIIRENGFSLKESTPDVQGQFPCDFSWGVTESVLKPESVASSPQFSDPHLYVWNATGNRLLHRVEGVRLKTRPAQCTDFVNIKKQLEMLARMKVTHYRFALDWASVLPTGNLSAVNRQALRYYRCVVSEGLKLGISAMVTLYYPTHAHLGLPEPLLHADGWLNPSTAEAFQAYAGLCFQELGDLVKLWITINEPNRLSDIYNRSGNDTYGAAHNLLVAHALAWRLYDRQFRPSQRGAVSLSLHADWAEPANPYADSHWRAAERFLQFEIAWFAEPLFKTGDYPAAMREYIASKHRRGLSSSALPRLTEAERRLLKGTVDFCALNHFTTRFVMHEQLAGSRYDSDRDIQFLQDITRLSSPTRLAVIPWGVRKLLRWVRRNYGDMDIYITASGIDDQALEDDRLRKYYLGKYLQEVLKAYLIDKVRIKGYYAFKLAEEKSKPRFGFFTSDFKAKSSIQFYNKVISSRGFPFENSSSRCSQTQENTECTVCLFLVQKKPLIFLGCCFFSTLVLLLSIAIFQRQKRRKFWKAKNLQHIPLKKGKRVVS
Chain of human KLB & human FGFR4 on L6 cells (P22455 22-802, chain 2 of 2): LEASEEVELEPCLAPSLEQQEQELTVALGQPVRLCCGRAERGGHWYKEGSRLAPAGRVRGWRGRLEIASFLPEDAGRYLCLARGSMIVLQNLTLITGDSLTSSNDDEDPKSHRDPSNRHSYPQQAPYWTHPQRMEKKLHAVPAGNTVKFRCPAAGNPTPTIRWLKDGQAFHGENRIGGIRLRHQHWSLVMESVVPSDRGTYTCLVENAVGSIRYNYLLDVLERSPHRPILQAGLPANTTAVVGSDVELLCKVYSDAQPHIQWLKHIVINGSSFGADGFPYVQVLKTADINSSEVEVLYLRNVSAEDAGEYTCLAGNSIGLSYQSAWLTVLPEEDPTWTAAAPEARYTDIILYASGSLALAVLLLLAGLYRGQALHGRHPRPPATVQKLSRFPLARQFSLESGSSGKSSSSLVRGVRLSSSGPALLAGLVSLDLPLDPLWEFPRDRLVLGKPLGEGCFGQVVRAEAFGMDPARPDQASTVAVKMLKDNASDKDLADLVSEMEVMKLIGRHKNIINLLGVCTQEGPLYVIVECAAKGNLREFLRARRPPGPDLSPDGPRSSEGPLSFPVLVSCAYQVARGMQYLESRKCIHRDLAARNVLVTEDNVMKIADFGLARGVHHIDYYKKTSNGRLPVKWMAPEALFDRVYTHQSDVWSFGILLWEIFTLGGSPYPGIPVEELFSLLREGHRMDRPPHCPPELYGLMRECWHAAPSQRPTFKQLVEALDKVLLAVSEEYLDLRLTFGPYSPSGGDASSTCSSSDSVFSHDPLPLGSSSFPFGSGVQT

[3] = target: human KLB & human FGFR3c on L6 cells (human, UniProt Q86Z14 1-1044; P22607 23-806); experiment: cell-based or functional assay
Chain of human KLB & human FGFR3c on L6 cells (Q86Z14 whole entry, chain 1 of 2): as the sequence (Q86Z14 whole entry, chain 1 of 2) above
Chain of human KLB & human FGFR3c on L6 cells (P22607 23-806, chain 2 of 2): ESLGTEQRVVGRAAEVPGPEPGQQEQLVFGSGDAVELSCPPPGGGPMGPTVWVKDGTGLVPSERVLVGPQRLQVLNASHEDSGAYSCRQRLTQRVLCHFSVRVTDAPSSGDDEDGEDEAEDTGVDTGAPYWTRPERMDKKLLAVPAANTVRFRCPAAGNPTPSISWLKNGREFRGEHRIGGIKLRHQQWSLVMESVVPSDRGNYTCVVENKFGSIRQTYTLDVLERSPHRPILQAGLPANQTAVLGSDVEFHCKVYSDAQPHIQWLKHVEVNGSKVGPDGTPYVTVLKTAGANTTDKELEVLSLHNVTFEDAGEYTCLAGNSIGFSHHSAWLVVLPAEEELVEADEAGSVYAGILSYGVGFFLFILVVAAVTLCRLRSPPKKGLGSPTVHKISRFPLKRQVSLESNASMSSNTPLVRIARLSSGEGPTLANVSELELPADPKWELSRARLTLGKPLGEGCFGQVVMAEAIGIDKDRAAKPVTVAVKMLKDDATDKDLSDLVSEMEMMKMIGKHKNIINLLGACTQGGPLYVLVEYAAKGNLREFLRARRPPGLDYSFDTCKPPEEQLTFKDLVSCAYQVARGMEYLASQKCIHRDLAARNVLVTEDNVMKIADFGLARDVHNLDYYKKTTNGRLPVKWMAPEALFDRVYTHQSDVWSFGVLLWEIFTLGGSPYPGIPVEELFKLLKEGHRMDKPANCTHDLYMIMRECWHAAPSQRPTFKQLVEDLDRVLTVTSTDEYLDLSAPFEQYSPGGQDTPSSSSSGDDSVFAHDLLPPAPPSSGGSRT

[4] = target: T2, hKLB (R&D, Cat. # 5889-KB) (human, UniProt Q86Z14 53-997, limits assumed); experiment: BLI (Octet HTX) competition; KLB+antibody premix on SA sensor; competitor: immobilised Bio-FGF19
T2 construct: bought soluble protein; also called KLB protein; human KLB
T2 sequence (looked up): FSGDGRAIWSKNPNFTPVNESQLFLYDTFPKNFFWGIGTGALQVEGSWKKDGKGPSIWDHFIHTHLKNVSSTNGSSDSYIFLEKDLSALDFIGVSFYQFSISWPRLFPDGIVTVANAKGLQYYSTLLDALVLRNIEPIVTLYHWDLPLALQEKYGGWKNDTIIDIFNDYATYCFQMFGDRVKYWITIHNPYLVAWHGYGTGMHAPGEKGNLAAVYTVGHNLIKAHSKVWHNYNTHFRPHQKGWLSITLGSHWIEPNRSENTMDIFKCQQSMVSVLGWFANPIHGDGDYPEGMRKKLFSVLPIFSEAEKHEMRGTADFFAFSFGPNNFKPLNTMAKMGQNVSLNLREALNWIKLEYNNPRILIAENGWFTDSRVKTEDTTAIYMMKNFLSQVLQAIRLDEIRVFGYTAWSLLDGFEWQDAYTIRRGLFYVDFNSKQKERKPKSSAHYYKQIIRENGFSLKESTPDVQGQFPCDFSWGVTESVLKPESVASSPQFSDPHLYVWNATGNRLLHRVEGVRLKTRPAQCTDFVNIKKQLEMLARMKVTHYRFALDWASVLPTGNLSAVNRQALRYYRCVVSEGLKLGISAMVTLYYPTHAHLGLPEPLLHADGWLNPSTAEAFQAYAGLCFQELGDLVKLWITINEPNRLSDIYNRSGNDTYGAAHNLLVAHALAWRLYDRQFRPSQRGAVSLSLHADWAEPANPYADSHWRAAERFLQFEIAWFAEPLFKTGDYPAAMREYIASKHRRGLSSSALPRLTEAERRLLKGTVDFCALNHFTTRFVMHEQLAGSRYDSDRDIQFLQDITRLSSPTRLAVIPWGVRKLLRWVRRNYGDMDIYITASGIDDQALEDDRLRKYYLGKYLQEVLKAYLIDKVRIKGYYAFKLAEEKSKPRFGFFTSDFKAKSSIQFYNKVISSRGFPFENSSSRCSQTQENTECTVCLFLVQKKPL
Procedure: Bio-FGF21/Bio-FGF19 (obtained by subjecting FGF21 and FGF19 to Biotin labeling with a Biotin Labeling Kit-NH2 (available from DOJINDO Molecular technologies Inc., LK03), wherein FGF21 is set forth in SEQ ID NO: 76 and FGF19 is set forth in SEQ ID NO: 77) was immobilized to an SA sensor (incubation for 80 s) at a concentration of 2 μg/mL, and the sensor was then transferred to a sample well containing KLB (R&D, 5889-KB-1 mg) or containing KLB+antibody premix (pre-incubation for at least 15 min) for 180 s of binding. The reaction signals were detected in real time using the ForteBio OCTET HTX instrument to obtain a binding curve.

B1: hAb-23 (antibody, human IgG1, kappa, L234A L235A, V domains shown)
VH: QVQLVQSGAEVKKPGSSVKVSCKASGGTFSSYAISWVRQAPGQGLEWMGGIIPIFGTANYAQKFQGRVTITADESTSTAYMELSSLRSEDTAVYYCARELVSYYYGMDVWGQGTMVTVSS
VL: not shown
notes: from a human natural phage library; human IgG1 (L234A, L235A) / kappa; also called fully human antibody hAb-23
- EC50 [1]: 130 pM
- Activation fold, pERK/total ERK in L6-hKLB&hFGFR4 cells [2]: 0.91 fold
- Activation fold, pERK/total ERK in L6-hKLB&hFGFR3c cells [3]: 1.08 fold
- binding signal of KLB to Bio-FGF19, % of KLB alone [4]: 99%

B2: hAb99-13 (antibody, human IgG1, kappa, L234A L235A, V domains shown)
VH: EVQLVQSGAEVKKPGASVKVSCKASGYTFTNYGINWVRQAPGQRLEWMGYIYIGNVDIEYNAKFKGRVTITSDTSASTAYMELSSLRSEDTAVYYCARGRGLGHFDVWGQGTTVTVSS
VL: DIQMTQSPSSLSASVGDRVTITCRASKSISKFLAWFQQKPGKTNKLLIYSGSTLQSGVPSRFSGSGSGTDFTLTISSLQPEDFATYYCQQHNEYPWTFGGGTKVEIKR
notes: human IgG1 (L234A, L235A) / kappa
- EC50 [1]: 270 pM
- Activation fold, pERK/total ERK in L6-hKLB&hFGFR4 cells [2]: 1.54 fold
- Activation fold, pERK/total ERK in L6-hKLB&hFGFR3c cells [3]: 4.95 fold
- binding signal of KLB to Bio-FGF19, % of KLB alone [4]: 99%

B3: hAb18-8 (antibody, human IgG1, kappa, L234A L235A, V domains shown)
VH: EVQLVQSGAEVKKPGASVKVSCKASGYTFTDYAMHWVRQAPGQRLEWMGVISTYSGTTNYNQNFKGRVTITVDKSASTAYMELSSLRSEDTAVYYCARSGPLDYWGQGTTVTVSS
VL: ENVLTQSPDFQSVTPKEKVTITCRATSSVSSSYLHWYQQKPDQSPKLWIYSTSQLASGVPSRFSGSGSGTDYTLTINSLEAEDAATYYCQQYSGYPLTFGQGTKLEIKR
notes: as for B2
- EC50 [1]: 1900 pM
- Activation fold, pERK/total ERK in L6-hKLB&hFGFR4 cells [2]: 0.98 fold
- Activation fold, pERK/total ERK in L6-hKLB&hFGFR3c cells [3]: 1.41 fold
- binding signal of KLB to Bio-FGF19, % of KLB alone [4]: 101%

— patent US20240270874A1 (JIANGSU HENGRUI PHARMACEUTICALS, published 2024)
